Measurements as given in the supplement of paper PMC11908140.

B1: library; numbered along this chain (parent)
chain: MRKPRAAVGSGHRKQAASQEGRQKHAKNNSQAKPSACDGLARQPEEVVLQASVSSYHLFRDVAEVTAFRGSLLSWYDQEKRDLPWRRRAEDEMDLDRRAYAVWVSEVMLQQTQVATVINYYTGWMQKWPTLQDLASASLEEVNQLWAGLGYYSRGRRLQEGARKVVEELGGHMPRTAETLQQLLPGVGRYTAGAIASIAFGQATGVVDGNVARVLCRVRAIGADPSSTLVSQQLWGLAQQLVDPARPGDFNQAAMELGATVCTPQRPLCSQCPVESLCRARQRVEQEQLLASGSLSGSPDVEECAPNTGQCHLCLPPSEPWDQTLGVVNFPRKASRKPPREESSATCVLEQPGALGAQILLVQRPNSGLLAGLWEFPSVTWEPSEQLQRKALLQELQRWAGPLPATHLRHLGEVVHTFSHIKLTYQVYGLALEGQTPVTTVPPGARWLTQEEFHTAAVSTAMKKVFRVYQGQQPGTCMGSKRSQVSSPCSRKKPRMGQQVLDNFFRSHISTDAHSLNSAAQ

Variants of: B1
Test: 8OG:A repair function score (normalized; synonymous = 0, nonsense = -1) (normalized log-likelihood score); higher = more repair activity (WT-like)
Details: with 8OG:A DNA repair reporter (GFP) in HEK-293 MUTYH KO cells
Method in brief: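 Per-tile Rosace fitness scores were converted to a normalized repair function score anchored on synonymous and nonsense distributions. That scale puts synonymous medians at 0 and nonsense medians at -1. Variants with starting counts under 300 counts per million were discarded. Input came from sorting viable mCherry+ MUTYH knockout HEK-293 cells, carrying lentiviral MUTYH cDNA NNN codon-scan libraries in 10 pg/ml doxycycline and an 8OG:A GFP repair reporter, into GFP+ and GFP− bins at 72 h, three replicates per tile, followed by tile amplicon sequencing.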
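Note: cells sorted at 72 h after reporter transfection.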

| Variant | 8OG:A repair function score |
| --- | --- |
| MRKPRAAVGSGHRKQAASQEGRQKHAKNNSQAKPSACDGLARQPEEVVLQASVSSYHLFRDVAEVTAFRGSLLSWYDQEKRDLPWRRRAEDEMDLDRRAYAVWVSEVMLQQTQVATVINYYTGWMQKWPTLQDLASASLEEVNQLWAGLGYYSRGRRLQEGARKVVEELGGHMPRTAETLQQLLPGVGRYTAGAIASIAFGQATGVVDGNVARVLCRVRAIGADPSSTLVSQQLWGLAQQLVDPARPGDFNQAAMELGATVCTPQRPLCSQCPVESLCRARQRVEQEQLLASGSLSGSPDVEECAPNTGQCHLCLPPSEPWDQTLGVVNFPRKASRKPPREESSATCVLEQPGALGAQILLVQRPNSGLLAGLWTFPSVTWEPSEQLQRKALLQELQRWAGPLPATHLRHLGEVVHTFSHIKLTYQVYGLALEGQTPVTTVPPGARWLTQEEFHTAAVSTAMKKVFRVYQGQQPGTCMGSKRSQVSSPCSRKKPRMGQQVLDNFFRSHISTDAHSLNSAAQ [E375T] | -0.355 |
| MRKPRAAVGSGHRKQAASQEGRQKHAKNNSQAKPSACDGLARQPEEVVLQASVSSYHLFRDVAEVTAFRGSLLSWYDQEKRDLPWRRRAEDEMDLDRRAYAVWVSEVMLQQTQVATVINYYTGWMQKWPTLQDLASASLEEVNQLWAGLGYYSRGRRLQEGARKVVEELGGHMPRTAETLQQLLPGVGRYTAGAIASIAFGQATGVVDGNVARVLCRVRAIGADPSSTLVSQQLWGLAQQLVDPARPGDFNQAAMELGATVCTPQRPLCSQCPVESLCRARQRVEQEQLLASGSLSGSPDVEECAPNTGQCHLCLPPSEPWDQTLGVVNFPRKASRKPPREESSATCVLEQPGAMGAQILLVQRPNSGLLAGLWEFPSVTWEPSEQLQRKALLQELQRWAGPLPATHLRHLGEVVHTFSHIKLTYQVYGLALEGQTPVTTVPPGARWLTQEEFHTAAVSTAMKKVFRVYQGQQPGTCMGSKRSQVSSPCSRKKPRMGQQVLDNFFRSHISTDAHSLNSAAQ [L355M] | -0.0213 |
| MRHPRAAVGSGHRKQAASQEGRQKHAKNNSQAKPSACDGLARQPEEVVLQASVSSYHLFRDVAEVTAFRGSLLSWYDQEKRDLPWRRRAEDEMDLDRRAYAVWVSEVMLQQTQVATVINYYTGWMQKWPTLQDLASASLEEVNQLWAGLGYYSRGRRLQEGARKVVEELGGHMPRTAETLQQLLPGVGRYTAGAIASIAFGQATGVVDGNVARVLCRVRAIGADPSSTLVSQQLWGLAQQLVDPARPGDFNQAAMELGATVCTPQRPLCSQCPVESLCRARQRVEQEQLLASGSLSGSPDVEECAPNTGQCHLCLPPSEPWDQTLGVVNFPRKASRKPPREESSATCVLEQPGALGAQILLVQRPNSGLLAGLWEFPSVTWEPSEQLQRKALLQELQRWAGPLPATHLRHLGEVVHTFSHIKLTYQVYGLALEGQTPVTTVPPGARWLTQEEFHTAAVSTAMKKVFRVYQGQQPGTCMGSKRSQVSSPCSRKKPRMGQQVLDNFFRSHISTDAHSLNSAAQ [K3H] | 0.0273 |
| MRKPRAAVGSGHRKQAASQEGRQKHAKNNSQAKPSACDGLARQPEEVVLQASVSSYHLFRDVAEVTAFRGSLLSWYDQEKRDLPWRRRAEDEMDLDHRAYAVWVSEVMLQQTQVATVINYYTGWMQKWPTLQDLASASLEEVNQLWAGLGYYSRGRRLQEGARKVVEELGGHMPRTAETLQQLLPGVGRYTAGAIASIAFGQATGVVDGNVARVLCRVRAIGADPSSTLVSQQLWGLAQQLVDPARPGDFNQAAMELGATVCTPQRPLCSQCPVESLCRARQRVEQEQLLASGSLSGSPDVEECAPNTGQCHLCLPPSEPWDQTLGVVNFPRKASRKPPREESSATCVLEQPGALGAQILLVQRPNSGLLAGLWEFPSVTWEPSEQLQRKALLQELQRWAGPLPATHLRHLGEVVHTFSHIKLTYQVYGLALEGQTPVTTVPPGARWLTQEEFHTAAVSTAMKKVFRVYQGQQPGTCMGSKRSQVSSPCSRKKPRMGQQVLDNFFRSHISTDAHSLNSAAQ [R97H] | -0.211 |
| MRKPRAAVGSGHRKQAASQEGRQKHAKNNSQAKPSACDGLARQPEEVVLQASVSSYHLFRDVAEVTAFRGSLLSWYDQEKRDLPWRRRAEDEMDLDRRAYAVWVSEVMLQQTQVATVINYYTGWMQKWPTLQDLASASLEEVNQLWAGLGYYSRGRRLQEGARKVVEELGGHMPRTAETLQQLLPGVGRYTAGAIASIAFGQATGVVDGNVARVLCRVRAIGADPSSTLVSQQLWGLAQQLVDPARPGDFNQAAMELGATVCTPQRPLCSQCPVESLCRARQRVEQEQLLASGSLSGSPDVEECAPNTGQCHLCLPPSEPWDQTLGVVNFPRKASRKPPREESSATCVLEQPGALGAQILLVQRPNSGLLAGLWEFPSVTWEPSEQLQRKALLQELQRWAGPLPATHLRALGEVVHTFSHIKLTYQVYGLALEGQTPVTTVPPGARWLTQEEFHTAAVSTAMKKVFRVYQGQQPGTCMGSKRSQVSSPCSRKKPRMGQQVLDNFFRSHISTDAHSLNSAAQ [H410A] | -0.29 |
| MRKPRAAVGSGHRKQAASQEGRQKHAKNNSQAKPSACDGLARQPEEVVLQASVSSYHLFRDVAEVTAFRGSLLSWYDQEKRDLPWRRRAEDEMDLDRRAYAVWVSEVMLQQTQVATVINYYTGWMQKWPTLQDLASASLEEVNQLWAGLGYYSRGRRLQEGARKVVEELGGHMPRTAETLQQLLPGVGRYTAGAIASIAFGQATGVVDGNVARVLCRVRAIGADPSSTLVSQQLWGLAQQLVDPARPGDFNQAAMELGATVCTPQRPLCSQCPVESLCRARQRVEQEQLLASGSLSGSPDVEECAPNTGQCHLCLPPSEPWDQTLGVVNFPRKASRKPPREESSATCVLEQPGALGAQILLVQRPNSGLLAGLWEFPSVTWEPSEQLQRKALLQELQRWAGPLPATHLRHLGEVVHTFSHIKLTYQVYGLALEGQTPVTTVPPGARWLTQEEFHTAAVSTAMKKVFRVYQGQQPGTCMGSKRSQVSSPCSRKKPRMGQQVLDNFFRSHISTDAHSQNSAAQ [L516Q] | 0.0225 |
| MRKPRAAVGSGHRKQAASQEGRQKHAKNNSQAKPSACDGLARQPEEVVLQASVSSYHLFRDVAEFTAFRGSLLSWYDQEKRDLPWRRRAEDEMDLDRRAYAVWVSEVMLQQTQVATVINYYTGWMQKWPTLQDLASASLEEVNQLWAGLGYYSRGRRLQEGARKVVEELGGHMPRTAETLQQLLPGVGRYTAGAIASIAFGQATGVVDGNVARVLCRVRAIGADPSSTLVSQQLWGLAQQLVDPARPGDFNQAAMELGATVCTPQRPLCSQCPVESLCRARQRVEQEQLLASGSLSGSPDVEECAPNTGQCHLCLPPSEPWDQTLGVVNFPRKASRKPPREESSATCVLEQPGALGAQILLVQRPNSGLLAGLWEFPSVTWEPSEQLQRKALLQELQRWAGPLPATHLRHLGEVVHTFSHIKLTYQVYGLALEGQTPVTTVPPGARWLTQEEFHTAAVSTAMKKVFRVYQGQQPGTCMGSKRSQVSSPCSRKKPRMGQQVLDNFFRSHISTDAHSLNSAAQ [V65F] | -0.0274 |
| MRKPRAAVGSGHRKQAASQEGRQKHAKNNSQAKPSACDGLARQPEEVVLQASVSSYHLFRDVAEVTAFRGSLLSWYDQEKRDLPWRRRAEDEMDLDRRAYAVWVSEVMLQQTQVATVINYYTGWMQKWPTLQDLASASLEEVNQLWAGLGYYSRGRRLQEGARKVVEELGGHMPRTAETLQQLLPGVGRYTAGAIASIAFGQATGVVDGNVARVLCRVRAIGADPSSTLVSQQLWGLAQQLVDPARPGDFNQAAMELGATVCTPQRPLCSQCPVESLCRARQRVEQEQLLASGSLSGSPDVEECAPNTGQCHLCLPPSEPWDQTLGVVNFPRKASRKPPREESSATCVLEQPGALGAQILLVQRPNSGLLAGLWEFPSVTWEPSEQLQRKALLQELQRWAGPLPATHLRHLGEVVHTFSHIKLTYQVYGLALEGQTPVTTVPPGARWLTQEEFHTAAVSTAMKKVFRVYQGQQPGTCMGSKRSQVSSPCSRKKPRMGKQVLDNFFRSHISTDAHSLNSAAQ [Q498K] | -0.00149 |
| MRKPRAAVGSGHRKQAASQEGRQKHAKNNSQAKPSACDGLARQPEEVVLQASVSSYHLFRDVAEVTAFRGSLLSWYDQIKRDLPWRRRAEDEMDLDRRAYAVWVSEVMLQQTQVATVINYYTGWMQKWPTLQDLASASLEEVNQLWAGLGYYSRGRRLQEGARKVVEELGGHMPRTAETLQQLLPGVGRYTAGAIASIAFGQATGVVDGNVARVLCRVRAIGADPSSTLVSQQLWGLAQQLVDPARPGDFNQAAMELGATVCTPQRPLCSQCPVESLCRARQRVEQEQLLASGSLSGSPDVEECAPNTGQCHLCLPPSEPWDQTLGVVNFPRKASRKPPREESSATCVLEQPGALGAQILLVQRPNSGLLAGLWEFPSVTWEPSEQLQRKALLQELQRWAGPLPATHLRHLGEVVHTFSHIKLTYQVYGLALEGQTPVTTVPPGARWLTQEEFHTAAVSTAMKKVFRVYQGQQPGTCMGSKRSQVSSPCSRKKPRMGQQVLDNFFRSHISTDAHSLNSAAQ [E79I] | 0.00691 |
| MRKPRAAVGSGHRKQAASQEGRQKHAKNNSQAKPSACDGLARQPEEVVLQASVSSYHLFRDVAEVTAFRGSLLSWYDQEKRDLPWRRRAEDEMDLDRRAYAVWVSEVMLQQTQVATVINYYTGWMQKWPTLQDLASASLEEVNQLWAGLGYYSRGRRLQEGARKVVEELGGHMPRTAETLQQLLPGVGRYTAGAIASIAFGQATGVVDGNVARVLCRVRAIGADKSSTLVSQQLWGLAQQLVDPARPGDFNQAAMELGATVCTPQRPLCSQCPVESLCRARQRVEQEQLLASGSLSGSPDVEECAPNTGQCHLCLPPSEPWDQTLGVVNFPRKASRKPPREESSATCVLEQPGALGAQILLVQRPNSGLLAGLWEFPSVTWEPSEQLQRKALLQELQRWAGPLPATHLRHLGEVVHTFSHIKLTYQVYGLALEGQTPVTTVPPGARWLTQEEFHTAAVSTAMKKVFRVYQGQQPGTCMGSKRSQVSSPCSRKKPRMGQQVLDNFFRSHISTDAHSLNSAAQ [P225K] | -0.284 |
| MRKPRAAVGSGHRKQAASQEGRQKHAKNNSQAKPSACDGLARQPEEVVLQASVSSYHLFRDVAEVTAFRGSLLSWYDQEKRDLPWRRRAEDEMDLDRRAYAVWVSEVMLQQTQVATVINYYTGWMQKWPTLQDLASASLEEVNQLWAGLGYYSRGRRLQEGARKVVEELGGHMPRTAETLQQLAPGVGRYTAGAIASIAFGQATGVVDGNVARVLCRVRAIGADPSSTLVSQQLWGLAQQLVDPARPGDFNQAAMELGATVCTPQRPLCSQCPVESLCRARQRVEQEQLLASGSLSGSPDVEECAPNTGQCHLCLPPSEPWDQTLGVVNFPRKASRKPPREESSATCVLEQPGALGAQILLVQRPNSGLLAGLWEFPSVTWEPSEQLQRKALLQELQRWAGPLPATHLRHLGEVVHTFSHIKLTYQVYGLALEGQTPVTTVPPGARWLTQEEFHTAAVSTAMKKVFRVYQGQQPGTCMGSKRSQVSSPCSRKKPRMGQQVLDNFFRSHISTDAHSLNSAAQ [L184A] | -0.718 |
| MRKPRAAVGSGHRKQAASQEGRQKHAKNNSQAKPSACDGLARQPEEVVLQASVSSYHLFRDVAEVTAFRGSLLSWYDQEKRDLPWRRRAEDEMDLDRRAYAVWVSEVMLQQTQVATVINYYTGWMQKWPTLQDLASASLEEVNQLWAGLGYYSRGRRLQEGARKVVEELGGHMPRTAETLQQLLPGVGRYTAGAIASIAFGQATGVVDGNVARVLCRVRAIGADPSSTLVSQQLWGLAQQLVDPARPGDFNQAAMELGATVCTPQRPLCSQCPVESLCRARQRVEQEQLLASGSLSGSPDVEECAPNTGQCHLCLPPSEPWDQTLGVVNFPRKASRKPPREESSATCVLEQPGALGAQILLVQLPNSGLLAGLWEFPSVTWEPSEQLQRKALLQELQRWAGPLPATHLRHLGEVVHTFSHIKLTYQVYGLALEGQTPVTTVPPGARWLTQEEFHTAAVSTAMKKVFRVYQGQQPGTCMGSKRSQVSSPCSRKKPRMGQQVLDNFFRSHISTDAHSLNSAAQ [R364L] | -0.747 |
